B1: Carboxypeptidase Y-deficient protein 8 (Saccharomyces cerevisiae), P40335 (parent)
chain: MSIFFKPPIDIEILFDNEESRKHVDIATRSSNSSYKSMKESLPVYEDGESLGGIVTLRVRDSKKVDHLGIKVSVIGSIDMLKSHGSGNSSSKKVTSSTSSSSSNGSVDVRKNSVDQFLCQSYDLCPAGELQHSQSFPFLFRDLSKRYESYKGKNVDVAYYVKVTVMRKSTDISKIKRFWVYLYNSVTTAPNTLSANETKATTNDIAGGNYAADNASDNTQTKSTQGEAADVNQVLPISHSNNEPKPVRLDIGIENCLHIEFEYAKSQYSLKEVIVGRIYFLLTRLRIKHMELSLITRESSGLQTSNVMTDSTAIRYEIMDGSSVKGETIPIRLFLSGYDLTPNMSCNYFNVKNYLSLVIIDEDGRRYFKQSEITLYRTR

Variants of: B1
Details: with vps35_human VPS35, Q96QK1

| effect of a mutation on the interaction | Variant |
| --- | --- |
| disrupting interaction | MSIFFKPPIDIEILFDNEESRKHVDIATRSSNSSYKSMKESLPVYEDGESLGGIVTLRVRDSKKVDHLGIKVSVIGSIDMLKSHGSGNSSSKKVTSSTSSSSSNGSVDVRKNSVDQFLCQSYDLCPAGELQHSQSFPFLFRDLSKRYESYKGKNVDVAYYVKVTVMRKSTDISKIKRFWVYLYNSVTTAPNTLSANETKATTNDIAGGNYAADNASDNTQTKSTQGEAADVNQVLPISHSNNEPKPVRLDIGIENCLHIEFEYAKSQYSLKEVIVGRIYFLLTRLRIKHMELSLITRESSGLQTSNVMTDSTAIRYEDDDGSSVKGETIPIRLFLSGYDLTPNMSCNYFNVKNYLSLVIIDEDGRRYFKQSEITLYRTR [I318D;M319D] |

From IntAct's records for PubMed 16732284
